Patent publication US20040121386

Tests used:
His-tagged MKK7γ1 = tested on: T1, His-tagged MKK7γ1
T1 sequence: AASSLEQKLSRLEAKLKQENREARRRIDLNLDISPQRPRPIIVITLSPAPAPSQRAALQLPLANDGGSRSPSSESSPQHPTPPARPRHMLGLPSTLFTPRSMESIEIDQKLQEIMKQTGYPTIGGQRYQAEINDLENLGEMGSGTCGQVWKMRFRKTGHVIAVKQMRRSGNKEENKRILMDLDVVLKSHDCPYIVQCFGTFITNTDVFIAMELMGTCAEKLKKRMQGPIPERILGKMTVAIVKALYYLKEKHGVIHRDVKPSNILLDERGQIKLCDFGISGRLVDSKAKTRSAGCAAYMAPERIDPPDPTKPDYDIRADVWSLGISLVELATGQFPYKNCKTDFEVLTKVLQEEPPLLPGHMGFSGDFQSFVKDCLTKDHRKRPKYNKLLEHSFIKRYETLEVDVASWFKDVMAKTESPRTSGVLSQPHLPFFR

[1] = tested on: unactive JNK1 (Upstate, Inc.)

| Substance | phosphorylation in a two-step cascade kinase assay (γ-32P-ATP, SDS/PAGE, autoradiography) (His-tagged MKK7γ1) | phosphorylation in a two-step cascade kinase assay (γ-32P-ATP, SDS/PAGE, autoradiography) (unactive MKK7β1 (UBI)) | phosphorylation in a two-step cascade kinase assay (γ-32P-ATP, SDS/PAGE, autoradiography) [1] |
| --- | --- | --- | --- |
| Active MEKK1 (Upstate, Inc.) | The His-tagged MKK7γ1 protein and the MKK7β1 protein was phosphorylated by MEKK1 | The His-tagged MKK7γ1 protein and the MKK7β1 protein was phosphorylated by MEKK1 | – |
| unactive MKK7β1 (UBI) | – | – | in turn was able to phosphorylate JNK1 |
